“Also recorded” adds a separate entry of the source.
Legend:
Angiotensin II [1] = test: enzymatic activity of ACE2 truncates; format: biochemical
Angiotensin II [2] = details: as disclosed in U.S. Pat. No. 10,443,049; cited from earlier work
hTCEpi cells = test: RT-qPCR of inflammation-related genes in siACE2-transfected hTCEpi cells treated with losartan; format: cell-based; details: 100 μM losartan, 24 hours
Protocol: To examine if ACE2 deficiency-induced cytokine production is due to an increase in AngII activity, we investigated whether treatment of corneal epithelial cells with the AngII type 1 receptor (AT1R) antagonist, losartan could rescue the phenotype. hTCEpi deficient in ACE2 were treated with 100 μm losartan for 24 hrs and the cytokine response was evaluated.
Immortalized corneal epithelial cells, hTCEpi, were cultured in keratinocyte serum free media (Thermo Fisher Scientific, Waltham, Mass., USA) as described before^39. For siRNA knock-down experiments, cells were transfected with 10 nM siRNA SMARTpools against ACE2 and non-target control (GE Dharmacon, Colorado, USA) as previously described^37. Two days after transfection, cells were treated with losartan (100 μM) for 24 hours, and processed for total RNA isolation.
Total RNAs were isolated from hTCEpi cells and purified with a miRNeasy kit (Qiagen, Hilden, Germany). Real-time qPCR (RT-qPCR) was performed with a Roche LightCycler 96 System using the Roche FastStart Essential DNA Green Master (Roche, Branchburg, N.J., USA) according to the manufacturer's instructions.
Unpaired t-test were performed to determine statistical significance. The data are shown as means±standard deviation (SD). The differences were considered significant for p values of <0.05. All experiments were replicated at least three times.

[3] = ACE2 activity in eyes of ACE2-knockout mice after topical corneal application; format: in vivo, mouse; details: ACE2-KO mice, after one hour; for ACE2 activity in eyes: topical to cornea, 5 μg/μl in PBS or in 0.5% DMSO in PBS, vs untreated
Protocol: ACE2 activity was assessed in eyes isolated from ACE2-deficient mice.

[4] = duration of action in vivo after one injection (enzymatic activity in plasma, blood pressure); details: determined by enzymatic activity in plasma and by biologic response (blood pressure)
[5] = anti-ACE2 immunofluorescence of cornea of ACE2-KO mice after NaOH treatment and topical administration; format: in vivo, mouse; details: cornea treated with NaOH for 30 s, then topical administration
Protocol: The corneas of ACE2-KO mice were treated with NaOH for 30 s and then were topically administered ACE2 1-618-ABD. The cornea were subjected to immunofluorescence using anti-ACE2 antibodies. (See FIG. 13).

1-522: ACE2 truncate, amino acids 1-522, not enzymatically active [Group 1-522]
enzyme activity of ACE2 truncate (Angiotensin II [1]): not active

1-605: ACE2 truncate, amino acids 1-605, C-terminal deletion relative to SEQ ID NO:1 [Group 1-605]
enzymatic activity of ACE2 fragment (Angiotensin II [2]): very high enzymatic activity | enzyme activity of ACE2 truncate (Angiotensin II [1]): enzymatically active

1-618: ACE2 truncate, human ACE2 amino acids 1-618 [Group 1-618]
enzyme activity of ACE2 truncate (Angiotensin II [1]): enzymatically active

1-619: ACE2 truncate, amino acids 1-619, C-terminal deletion relative to SEQ ID NO:1 [Group 1-619]
enzymatic activity of ACE2 fragment (Angiotensin II [2]): very high enzymatic activity | enzyme activity of ACE2 truncate (Angiotensin II [1]): enzymatically active

CCCCc1nc(Cl)c(CO)n1Cc1ccc(-c2ccccc2-c2nn[nH]n2)cc1 [losartan]
pro-inflammatory activity / cytokine storm-like phenotype in ACE2 depleted corneal epithelial cells (hTCEpi cells): partially rescued | expression of CCL2 (hTCEpi cells; RT-qPCR): decreased; also recorded: significantly blocked | expression of CXCL8 (hTCEpi cells; RT-qPCR): only slightly altered | expression of IL1B (hTCEpi cells; RT-qPCR): only slightly altered | expression of ILIA (hTCEpi cells; RT-qPCR): decreased; also recorded: significantly blocked | expression of TNFA (hTCEpi cells; RT-qPCR): decreased; also recorded: significantly blocked | pro-inflammatory activity / cytokine storm-like phenotype in ACE2 depleted corneal epithelial cells (hTCEpi cells; listed as Losartan): partially reverse

ACE2 1-618ABD: human ACE2 amino acids 1-618 fused to albumin binding domain (ABDCon) via a GS4 linker
effect of DMSO on detectable ACE2 activity in eyes ([3]; 5 μg/μl in 0.5% DMSO in PBS vs in PBS): enhance detectable ACE2 activity | ACE2 activity in eyes [3]: Detectable ACE2 activity was observed | ACE2 activity in eyes ([3]; listed as hr ACE2 1-618ABD): Recovery of ACE2 activity | duration of action of one injection [4]: at least 4 days | ACE2 staining by immunofluorescence in the cornea [5]: Appearance of ACE2 staining

— patent US20210386837A1, “ACTIVE LOW MOLECULAR WEIGHT VARIANTS OF ANGIOTENSIN CONVERTING ENZYME 2 (ACE2) FOR THE TREATMENT OF DISEASES AND CONDITIONS OF THE EYE” (Northwestern University, priority 2020, published 2021)
